This is an account of results in patent US20060035230A1 (BOYCE THOMPSON INSTITUTE FOR PLANT RESEARCH, published 2006).

For the test, the target named is T1, PtiDC1Δ70 (AvrPtoB lacking the first 70 amino acids) (Pseudomonas syringae pv. tomato DC3000, UniProt Q8RSY1 71-553).
T1 construct: also called AvrPtoB prey PtiDC1Δ70; avrPtoB (PtiDC1Δ70)
T1 sequence: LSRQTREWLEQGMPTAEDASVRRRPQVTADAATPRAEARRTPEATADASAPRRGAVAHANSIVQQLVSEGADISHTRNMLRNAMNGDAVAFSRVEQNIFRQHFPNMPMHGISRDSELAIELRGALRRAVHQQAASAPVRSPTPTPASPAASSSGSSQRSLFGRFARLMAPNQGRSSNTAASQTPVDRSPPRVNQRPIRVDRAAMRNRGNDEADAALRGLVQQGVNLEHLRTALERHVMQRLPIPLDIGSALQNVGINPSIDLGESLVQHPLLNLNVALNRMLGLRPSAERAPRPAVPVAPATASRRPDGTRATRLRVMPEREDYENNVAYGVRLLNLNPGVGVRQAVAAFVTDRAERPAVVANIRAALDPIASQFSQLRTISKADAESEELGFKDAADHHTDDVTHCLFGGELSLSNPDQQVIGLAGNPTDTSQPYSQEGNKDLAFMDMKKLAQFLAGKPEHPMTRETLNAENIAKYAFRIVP
The test is described as follows: LexA yeast two-hybrid, AvrPtoB prey PtiDC1Δ70 against kinase bait.

B1: Pti1 kinase (enzyme)
chain: MSCFSCCDDDDMHRATDNGPFMAHNSAGNNGGQRATESAQRETQTVNIQPIAVPSIAVDELKDITDNFGSKALIGEGSYGRVYHGVLKSGRAAAIKKLDSSKQPDREFLAQVSMVSRLKDENVVELLGYCVDGGFRVLAYEYAPNGSLHDILHGRKGVKGAQPGPVLSWAQRVKIAVGAAKGLEYLHEKAQPHIIHRDIKSSNILLFDDDVAKIADFDLSNQAPDMAARLHSTRVLGTFGYHAPEYAMTGQLSSKSDVYSFGVVLLELLTGRKPVDHTLPRGQQSLVTWATPRLSEDKVKQCVDARLNTDYPPKAIAKMAAVAALCVQYEADFRPNMSIVVKALQPLLPRPVPS
notes: Bait fusion in pEG202
With B1, the binding result was “no binding”.
